Legend:
[1] = biological target: hCD40 (as used in SPR) (human) (UniProt P25942); assay: SPR
[2] = biological target: hCD40 expressed on Jurkat cells (human, UniProt P25942); assay: cell-based or functional assay
hCD40 expressed on Jurkat cells, sequence (P25942 21-277): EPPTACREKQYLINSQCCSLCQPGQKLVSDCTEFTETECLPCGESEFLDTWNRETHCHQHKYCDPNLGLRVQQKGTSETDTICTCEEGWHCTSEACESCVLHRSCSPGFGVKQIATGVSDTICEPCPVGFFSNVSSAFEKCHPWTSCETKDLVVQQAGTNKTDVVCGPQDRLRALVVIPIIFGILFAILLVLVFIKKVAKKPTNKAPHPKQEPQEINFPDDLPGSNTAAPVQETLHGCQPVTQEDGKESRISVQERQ

hCD40 (as used in SPR) (human), sequence (P25942 21-277): as above

## ChiLob7/4 hIgG2 wild type (from UniProt P01859)
[1]
  Kd: 1.97 nM
  koff: 0.000164 s⁻¹

B1: ChiLob7/4 hIgG2 C232S κC214S (cross-over) (antibody, V domains shown)
VH: EVQLQQSGPDLVKPGASVKISCKTSGYTFTEYIMHWVKQSHGKSLEWIGGIIPNNGGTSYNQKFKDKATMTVDKSSSTGYMELRSLTSEDSAVYYCTRREVYGRNYYALDYWGQGTLVTVSS
VL: DIQMTQTTSSLSASLGDRVTITCSASQGINNYLNWYQQKPDGTVKLLIYYTSSLHSGVPSRFSGSGSGTDYSLTISNLEPEDIATYYCQQYSNLPYTFGGGTKLEIK
[2]
  EC50 of NF-κB activation (percentage of GFP+ cells, flow cytometry, 24 h) in NF-κB/Jurkat/GFP reporter cells expressing hCD40: 4.59 ng/mL

B2: ChiLob7/4 hIgG2 C232S + T222C κE123C + κC214S (cross-over + T222C κE123C) (antibody, V domains shown)
VH: B1 VH
VL: B1 VL
[2]
  EC50 of NF-κB activation (percentage of GFP+ cells, flow cytometry, 24 h) in NF-κB/Jurkat/GFP reporter cells expressing hCD40: 1.55 ng/mL

B3: ChiLob7/4 hIgG2 C232S + K228C κC214S (cross-over + K228C) (antibody, V domains shown)
VH: B1 VH
VL: B1 VL
[2]
  EC50 of NF-κB activation (percentage of GFP+ cells, flow cytometry, 24 h) in NF-κB/Jurkat/GFP reporter cells expressing hCD40: 1.55 ng/mL
